Experimental data: article PMC6908617, “Evolutionary conservation of the intrinsic disorder-based Radical-Induced Cell Death1 hub interactome” (Scientific Reports, 2019)
Like-named read-outs stand apart in the source and are kept apart here.

B1: AtRCD1-RST(499–572) (domain or fragment, Arabidopsis thaliana, UniProt Q8RY59 499-572, looked up)
chain: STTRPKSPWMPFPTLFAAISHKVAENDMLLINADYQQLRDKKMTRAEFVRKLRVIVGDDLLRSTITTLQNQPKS
notes: RST domain of Radical-Induced Cell Death1 (RCD1), Arabidopsis thaliana, residues 499-572; also called AtRST(499–572); Arabidopsis RST domain
B2: AtDREB2A(244–272) (peptide, UniProt O82132 244-272, looked up)
chain: WPNDVDQSHLDSSDMFDVDELLRDLNGDD

How the values were obtained:
[1] = molecular target: RCD1 RST (Arabidopsis thaliana) (UniProt Q8RY59); conditions: cited from earlier work
[2] = molecular target: RCD1 499-572 (Arabidopsis thaliana) (UniProt Q8RY59); experiment: ITC; conditions: cited from earlier work
[3] = molecular target: ANAC013(254–274) (Arabidopsis thaliana) (UniProt F4IED2); experiment: ITC; RST domain in the syringe (100–300 µM) titrated into the TF fragment in the cell (10–30 µM); 25 °C; 50 mM Hepes, pH 7.4, 100 mM NaCl; one set of sites model
[4] = molecular target: GmDREB2A(273–290) (Glycine max (soybean)); experiment: as above
AtDREB2A(244–272) = molecular target: B2; experiment: as above
[5] = molecular target: HvDRF1.1(255–273) (Hordeum vulgare (barley)); experiment: as above
HvNAC013(176–346) = molecular target: T1, HvNAC013(176–346) (Hordeum vulgare (barley), UniProt F2EJH0 176-346); experiment: as above; conditions: both partners purified
T1 construct: HvNAC013, barley (Hordeum vulgare) NAC transcription factor, ID AK376297.1, residues 176-346; also called barley ortholog of ANAC046; source: plasmid from previous work
T1 sequence (looked up): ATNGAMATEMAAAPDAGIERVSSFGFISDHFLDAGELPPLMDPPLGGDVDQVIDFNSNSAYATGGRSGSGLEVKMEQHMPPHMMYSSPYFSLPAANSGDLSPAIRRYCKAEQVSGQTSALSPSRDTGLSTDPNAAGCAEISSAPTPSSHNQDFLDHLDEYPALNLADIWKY

AtRCD1-RST(499–572) [6] = molecular target: B1; experiment: as above; conditions: both partners purified
AtRCD1-RST(499–572) [7] = molecular target: B1; experiment: ITC; ANAC087(315–335) in the syringe (100–300 µM) titrated into the RST domain in the cell (10–30 µM); 25 °C; 50 mM Hepes, pH 7.4, 100 mM NaCl; one set of sites model; conditions: both partners purified

Chain of ANAC013(254–274) (Arabidopsis thaliana) (F4IED2 254-274): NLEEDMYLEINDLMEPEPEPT

For ANAC046 (from UniProt Q9SQQ6), the Kd [1] is listed as 609 nM.

In the case of ANAC013 254-274 (from UniProt F4IED2), the Kd [2] is listed as 9 nM.

Work on “GmRCD1-RST(483–583) (domain or fragment)” yielded a Kd [3] of 526 nM, a dH [3] of -8.77 kcal/mol and a stoichiometry N [3] of 0.94. The Kd [4] was 2590 nM, the dH [4] was -5.62 kcal/mol and the stoichiometry N [4] was 0.98. The Kd (AtDREB2A(244–272)) was 320 nM, the dH (AtDREB2A(244–272)) was -9.25 kcal/mol and the stoichiometry N (AtDREB2A(244–272)) was 0.95.

For B1, the Kd [4] was 397 nM, the dH [4] was -8.34 kcal/mol and the Kd [5] was 450 nM. For the same molecule, the dH [5] was -11.6 kcal/mol, the Kd (HvNAC013(176–346)) was 343 nM and the dH (HvNAC013(176–346)) was -1.08 kcal/mol. The “stoichiometry N” value (HvNAC013(176–346)) was 1.03, the dH (AtDREB2A(244–272); both partners purified) was -15.1 kcal/mol and the “stoichiometry N” value (AtDREB2A(244–272); both partners purified) was 0.9.

Molecule B2 has a Kd (AtRCD1-RST(499–572) [6]) of 16 nM.

B3: ANAC087(315–335) (peptide, UniProt Q9FK44 315-335, looked up)
chain: MVNGSKSYEDLCDLRGDLWDF
notes: NAC transcription factor ANAC087, Arabidopsis thaliana, AT5G18270, residues 315-335
For B3, the Kd (AtRCD1-RST(499–572) [7]) was 1750 nM, the dH (AtRCD1-RST(499–572) [7]) was -3.8 kcal/mol and the “stoichiometry N” value (AtRCD1-RST(499–572) [7]) was 0.93.

B4: AtDREB2A(244–272;L264I) (peptide, UniProt O82132 244-272, looked up)
chain: WPNDVDQSHLDSSDMFDVDEILRDLNGDD
notes: DREB2A, Arabidopsis thaliana, AT5G05410, residues 244-272 with Leu264 to Ile; source: mutation by QuikChange
B4 gave a Kd (AtRCD1-RST(499–572) [6]) of 39 nM.

B5: ANAC013(254–274;L266I) (peptide, UniProt F4IED2 254-274, looked up)
chain: NLEEDMYLEINDIMEPEPEPT
notes: ANAC013, Arabidopsis thaliana, AT1G32870, residues 254-274 with Leu266 to Ile; Probably made from the ANAC013(254–274) plasmid of previous work and purified in the same way; also called AtANAC013(254–274;L266I)
For B5, the Kd (AtRCD1-RST(499–572) [6]) was 223 nM.
